Source: patent publication US20240025971A1 (ATRECA, published 2024)

Key:
Test in all cases: cell-based or functional assay
[1] = biological target: SARS-CoV-2 Wuhan D614G full-length Spike protein (SARS-CoV-2, UniProt P0DTC2 14-1273)
[2] = biological target: SARS-CoV-2 Gamma (P.1.B.1.1.28) full-length Spike protein (SARS-CoV-2, UniProt P0DTC2 14-1273)
[3] = biological target: SARS-CoV-2 Alpha (B.1.1.7) full-length Spike protein (SARS-CoV-2, UniProt P0DTC2 14-1273)
[4] = biological target: SARS-CoV-2 Epsilon (B.1.427/9) full-length Spike protein (SARS-CoV-2, UniProt P0DTC2 14-1273)
[5] = biological target: SARS-CoV-2 Delta (B.1.617.2) full-length Spike protein (SARS-CoV-2, UniProt P0DTC2 14-1273)
[6] = biological target: SARS-CoV-2 Delta-plus (B.1.617.2.1) full-length Spike protein (SARS-CoV-2, UniProt P0DTC2 14-1273)
[7] = biological target: SARS-CoV-2 Beta (B.1.351) full-length Spike protein (SARS-CoV-2, UniProt P0DTC2 14-1273)

B1: AB-010020 (antibody, V domains shown)
VH: QMQLVQSGPEVKKPGTSVKVSCKASGFTFTSSAVQWVRQARGQRLEWIGWIVVGSGNTNYAQKFQERVTITRDMSTSTAYMELSSLRSEDTAVYYCAAPACSSTSCYDGFDIWGQGTMVTVSS
VL: not shown
notes: human IgG1
With B1 as the binder, how does the “Pseudovirus Neutralization” value [1] read?
Its value is 0.003 µg/mL.

What about the “Pseudovirus Neutralization” value [2] of the same binder?
The value was 0.0114 µg/mL.

What about the “Pseudovirus Neutralization” value [3] of the same binder?
Its value is 0.013 µg/mL.

And the “Pseudovirus Neutralization” value [4]?
Its value is 0.003 µg/mL.

What about the “Pseudovirus Neutralization” value [5] of the same binder?
Its value is 0.003 µg/mL.

And the “Pseudovirus Neutralization” value [6]?
The value was 0.001 µg/mL.

And the “Pseudovirus Neutralization” value [7]?
Its value is 0.018 µg/mL.

B2: AB-010021 (antibody, V domains shown)
VH: QMQLVQSGPEVKKPGTSVKVSCKASGFTFTSSAVQWVRQARGQRLEWIGWIVVGSGNTNYAQKFQERVTITRDMSTSTAYMELSSLRSEDTAVYYCAAVYCSGGSCLDAFDIWGQGTMVTVSS
VL: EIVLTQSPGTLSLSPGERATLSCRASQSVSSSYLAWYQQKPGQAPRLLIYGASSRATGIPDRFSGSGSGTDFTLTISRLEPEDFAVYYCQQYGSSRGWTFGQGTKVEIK
notes: human IgG1; also called AB-0010021
B2 was tested. Which “Pseudovirus Neutralization” value [1] did it give?
Its value is 0.7 µg/mL.

And the “Pseudovirus Neutralization” value [2]?
Its value is 5.39 µg/mL.

And the “Pseudovirus Neutralization” value [3]?
Its value is 2.69 µg/mL.

What about the “Pseudovirus Neutralization” value [4] of the same binder?
Its value is 0.629 µg/mL.

What about the “Pseudovirus Neutralization” value [5] of the same binder?
The value was 0.574 µg/mL.

What about the “Pseudovirus Neutralization” value [6] of the same binder?
The value was 0.078 µg/mL.

What about the “Pseudovirus Neutralization” value [7] of the same binder?
The value was 8.27 µg/mL.

B3: AB-009271 (antibody, V domains shown)
VH: EVQLVESGGGLIQPGGSLRLSCAASGFIVSSNYMSWVRQAPGKGLEWVSVIYSGGSTYYADSVKGRFTISRDNSKNTLYLQMNSLRAEDTAVYYCARDYGDFYFDYWGQGTLVTVSS
VL: EIVMTQSPATLSVSPGERATLSCRASQSVSSNLAWYQQKPGQAPRLLIYGASTRATGIPARFSGSGSGTEFTLTISSLQSEDFAVYYCQQYYNWPRTFGQGTKVEIK
notes: human IgG1
What does the source list for B3?
Pseudovirus Neutralization [1]: 0.036 µg/mL; Pseudovirus Neutralization [2]: > 50 µg/mL; Pseudovirus Neutralization [3]: 0.275 µg/mL; Pseudovirus Neutralization [4]: 0.028 µg/mL; Pseudovirus Neutralization [5]: 0.012 µg/mL; Pseudovirus Neutralization [6]: > 50 µg/mL; Pseudovirus Neutralization [7]: > 50 µg/mL

B4: AB-009613 (antibody, V domains shown)
VH: EVQLVESGGGLIQPGGSLRLSCAASGFTVSSNYMSWVRQAPGKGLEWVSVIYSGGSTYYADSVKGRFTISRDNSKNTLYLQMNSLRAEDTAVYYCARDYGDFYFDYWGQGTLVTVSS
VL: not shown
notes: human IgG1
Which results are given for B4?
Pseudovirus Neutralization [1]: 0.83 µg/mL; Pseudovirus Neutralization [2]: > 50 µg/mL; Pseudovirus Neutralization [3]: 7.23 µg/mL; Pseudovirus Neutralization [4]: 1.16 µg/mL; Pseudovirus Neutralization [5]: 0.101 µg/mL; Pseudovirus Neutralization [6]: > 50 µg/mL; Pseudovirus Neutralization [7]: > 50 µg/mL

B5: AB-009610 (antibody, V domains shown)
VH: QVQLVQSGAEVKKPGSSVKVSCKASGGTFSNYAISWVRQAPGQGLEWMGRIIPILGIANYAQKFQGRVTITADKSTSTAYMELSSLRSEDTAVYYCATTPYYYDSSGYYLDYWGQGTLVTVSS
VL: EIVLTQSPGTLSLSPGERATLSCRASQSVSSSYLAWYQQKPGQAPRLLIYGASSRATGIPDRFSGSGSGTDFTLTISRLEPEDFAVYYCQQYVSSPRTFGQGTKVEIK
notes: human IgG1
Which results are given for B5?
Pseudovirus Neutralization [1]: 2.21 µg/mL; Pseudovirus Neutralization [2]: > 50 µg/mL; Pseudovirus Neutralization [3]: 2.84 µg/mL; Pseudovirus Neutralization [4]: > 50 µg/mL; Pseudovirus Neutralization [5]: > 50 µg/mL; Pseudovirus Neutralization [6]: > 50 µg/mL; Pseudovirus Neutralization [7]: > 50 µg/mL
